Reference: US20190160028A1

Target: Nluc-NS2B (49-66) (named as Nluc-E66stop) (firefly; Dengue virus serotype 2 (DENV2)) [luciferase: P08659]
Sequence (P08659 whole entry): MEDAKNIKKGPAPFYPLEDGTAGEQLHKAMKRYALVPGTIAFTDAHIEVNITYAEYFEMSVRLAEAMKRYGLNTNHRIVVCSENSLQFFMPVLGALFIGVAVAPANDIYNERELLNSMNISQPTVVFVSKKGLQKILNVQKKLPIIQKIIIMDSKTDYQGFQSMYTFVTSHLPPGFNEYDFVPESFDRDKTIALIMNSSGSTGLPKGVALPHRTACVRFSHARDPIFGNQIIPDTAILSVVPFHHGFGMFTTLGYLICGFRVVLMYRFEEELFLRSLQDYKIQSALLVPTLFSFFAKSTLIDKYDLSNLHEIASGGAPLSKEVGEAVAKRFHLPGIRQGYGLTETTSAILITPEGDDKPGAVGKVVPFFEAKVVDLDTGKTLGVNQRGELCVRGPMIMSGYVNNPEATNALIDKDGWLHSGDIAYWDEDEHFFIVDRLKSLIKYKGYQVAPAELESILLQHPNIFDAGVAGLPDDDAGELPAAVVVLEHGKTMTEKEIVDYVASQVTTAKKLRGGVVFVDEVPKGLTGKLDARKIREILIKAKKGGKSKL

With “His-tagged maltose-binding protein (MBP) fused to DENV2 NS3 protein (His-MBP-NS3) (from UniProt P14337 1476-1654) (enzyme)” as the substance, how does the affinity read?
The affinity was 2.5 µM.
